In the DeepSol protein solubility set:

Experiment: soluble on expression in E. coli; label from the status in PepcDB or PDB records

**Q.** Which “soluble on expression in E. coli” value does the source give for “MRLHPRTEAAKESIFPRMSGLAQRLGAVNLGQGFPSNPPPPFLLEAVRRALGRQDQYAPPAGLPALREALAEEFAVEPESVVVTSGATEALYVLLQSLVGPGDEVVVLEPFFDVYLPDAFLAGAKARLVRLDLTPEGFRLDLSALEKALTPRTRALLLNTPMNPTGLVFGERELEAIARLARAHDLFLISDEVYDELYYGERPRRLREFAPERTFTVGSAGKRLEATGYRVGWIVGPKEFMPRLAGMRQWTSFSAPTPLQAGVAEALKLARREGFYEALREGYRRRRDLLAGGLRAMGLRVYVPEGTYFLMAELPGWDAFRLVEEARVALIPASAFYLEDPPKDLFRFAFCKTEEELHLALERLGRVVNSPREAEGGAVSG” here?
**A.** Its value is “soluble”.

**Q.** For “MIDSQGWYRLARKVPSPHCDVRHDSEDISLLVVHNISLPPGQFGGPYIEQFFLGELDANQHSFFKVIAKMRVSAHCVIRRDGEVVQFVPFHLRAWHAGVSSFAGRAKCNDYSIGIELEGSDFVPYTDAQYQALTELTQALMVRYPHITLPRITGHQYIAPLRKTDPGLVFDWRRFRAGLKS”, which “soluble on expression in E. coli” value is on record?
**A.** Its value is “not soluble”.

**Q.** With “MLVNFIKNFIPHRFYSSKTEIPVVRLHGAIIDSSSSIARTLSLGRCANLLDKAFAYKKAPAVAVIINSPGGSPVQSRLIFKRIRDLAEEKKKQVLMFIEDIAASGGYMIACAGDEIFADPSSIVGSIGVVSASFGFPELLKKIGIERRVYTAGKNKVTLDPFQPEKKTDIEHLKSLQLEVHKTFIDLVKERRAEKLSNDPNIFTGMFWSGKKSVELGLIDGLNDVRSVIKERFGDDTKLRLIIPPKSLFGPKTPSGVTAHAVHTAIDSALMVAQERALWQYYGLLEHHHHHH” as the sequence, how does the “soluble on expression in E. coli” value read?
**A.** The value was “soluble”.

**Q.** Which “soluble on expression in E. coli” value does the source give for “MGHHHHHHSHMKANLSLLRRPGEKTYTQRCRLFVGNLPADITEDEFKRLFAKYGEPGEVFINKGKGFGFIKLESRALAEIAKAELDDTPMRGRQLRVRFATHAAALSVRNLSPYVSNELLEEAFSQFGPIERAVVIVDDRGRSTGKGIVEFASKPAARKAFERCSEGVFLLTTTPRPVIVEPLEQLDDEDGLPEKLAQKNPMYQKE” here?
**A.** The value was “soluble”.

**Q.** Which “soluble on expression in E. coli” value does the source give for “MISKGFSTQTERINILKAQILNAKPCVESERAILITESFKQTEGQPAILRRALALKHILENIPITIRDQELIVGSLTKEPRSSQVFPEFSNKWLQDELDRLNKRTGDAFQISEESKEKLKDVFEYWNGKTTSELATSYMTEETREAVNCDVFTVGNYYYNGVGHVSVDYGKVLRVGFNGIINEAKEQLEKNRSIDPDFIKKEKFLNSVIISCEAAITYVNRYAKKAKEIADNTSDAKRKAELNEIAKICSKVSGEGAKSFYEACQLFWFIHAIINIESNGHSISPARFDQYMYPYYENDKNITDKFAQELIDCIWIKLNDINKVRDEISTKHFGGYPMYQNLIVGGQNSEGKDATNKVSYMALEAAVHVKLPQPSLSVRIWNKTPDEFLLRAAELTREGLGLPAYYNDEVIIPALVSRGLTLEDARDYGIIGCVEPQKPGKTEGWHDSAFFNLARIVELTINSGFDKNKQIGPKTQNFEEMKSFDEFMKAYKAQMEYFVKHMCCADNCIDIAHAERAPLPFLSSMVDNCIGKGKSLQDGGAEYNFSGPQGVGVANIGDSLVAVKKIVFDENKITPSELKKTLNNDFKNSEEIQALLKNAPKFGNDIDEVDNLAREGALVYCREVNKYTNPRGGNFQPGLYPSSINVYFGSLTGATPDGRKSGQPLADGVSPSRGCDVSGPTAACNSVSKLDHFIASNGTLFNQKFHPSALKGDNGLMNLSSLIRSYFDQKGFHVQFNVIDKKILLAAQKNPEKYQDLIVRVAGYSAQFISLDKSIQNDIIARTEHVM” here?
**A.** The value was “soluble”.

**Q.** With “MWRVVFDCEEAVRWLRQAKHTLESIRVDYEGGFYSWACFKANQAAEYSIKAVLRAAGLESFGHDLMALWRRARSLCQPLQEMEECIAVLNKLYLPPRYPDAWPGGAAPFENYTRRDAEEALECASRVYRAVEECLGEECEDS” as the sequence, how does the “soluble on expression in E. coli” value read?
**A.** The value was “soluble”.

**Q.** Which “soluble on expression in E. coli” value does the source give for “GHMVDLEQEFALGGRVLAFHGPLMYEAKILKIWDPSSKMYTSIPNDKPGGSSQATKEIKPQKLGEDESIPEEIINGKSFFIHYQGWKSSWDEWVGYDRIRAYNEENIAMKKRLANEAGSTGSAPATGGVKKPHRYR” here?
**A.** Its value is “soluble”.

**Q.** With “MGSDKIHHHHHHMVETYTLNPNLTKTAAVAEWLQQRIDWHIYLPNQRVPSVRKLAKLLNISSFTVVQAYEQLVATGVLIAKPSSGYYVNTQSKLVQPNDDKRKVFKHPVIDTRWLVQQVFSDIPHNRSPGVGTLPRDWVRNDKMEWAIRQVTQQADSFIYDYGNVQGYLPLRQQLVQHLHTLGMQTHADHVITTAGVSQAVTMVARLLTQAGDTVVVDGPGWYWLSSCLQQQGLNVVSVERDHQGPNIEQMQKLFAAHRPKLYLTNSVLHNPTSYNLHPARAHQVLNLIHEYDAYIFEDDLYAAFVPGGQVLRYASLDQFERVFYATGFSKSMASGWRVGMLVCPDNYIDDVLRIKTLSNSNTPEFGERVCHHLWTHGEYRRQIKKVQQHLYRAHERMRKALPKIRLIYPEHTQAGLFVWVDMGQDTSQLALDAYKEGWLVAPGQLFYPDVSASTHLRLNVSTTSDEFLRWLGDYLDKSCQY” as the sequence, how does the “soluble on expression in E. coli” value read?
**A.** The value was “not soluble”.

**Q.** For “MGSDKIHHHHHHMSNVKTAEFKRPQLSLPHSADKLLLHSCCAPCSGEVMEAITASGIDYTIFFYNPNIHPQREYLIRKEENIRFAEQHNVPFIDADYDSDNWFERAKGMEWEPERGIRCTMCFDMRFERTALYAAENGFSVISSSLGISRWKNMQQINECGQNAAQKYPGVTYWDYNWRKGGGSARMIEISKREHFYQQEYCGCIYSLRDSNKHRKSQGRDIIRIGKLYYGDEAE”, which “soluble on expression in E. coli” value is on record?
**A.** Its value is “not soluble”.

**Q.** With “MGSDKIHHHHHHMKRPISQQSVQVALGQAALPVGVLTFNKDGARESSTFAYHEAWLRSADRFEISPDLQLVQGQQFRKAPSRDDSIFPFAFADTEPDGWGCRVIARDHARRRKSAQEKGRDVPHAGLTEMDYLLGVDDLSRIGALRLADEAGNYLRSIEDGGRGTPPLLELGHLIGATRAVEMNRETAADLKYLRGRGTSLGGMRPKCTILDEDGQLAIGKFPSINDDRSVTRGEVLALHLAAAAGITVAQSRIVMSEEIPVALVRRFDRVTNGGRIPYLSAGSMLQASRQEEHAYTQIADCIIARCADPKRDLEELWRRLVFNLLITNVDDHVQNHGFLHVEHGLWRLAPAFDINPFPDKDPELKLWLNEDYGPVDSIEAVMNEARYFRLSADEAKRILGEVRNAVGDWKRVAKSAPVGMTDDDLDAFQPAFENGQTEAAAALL” as the sequence, how does the “soluble on expression in E. coli” value read?
**A.** The value was “not soluble”.

**Q.** Which “soluble on expression in E. coli” value does the source give for “MAKVYGSLIDNETRCTHYYSSLDVIAIKFKCCNKYYPCYKCHNEHVSHTIERWAENEFDEKAIMCGVCKHEMRIRDYMMVEMCPRCKAHFNSRCKFHYHLYFEVLEHHHHHH” here?
**A.** Its value is “not soluble”.

**Q.** With “MGSDKIHHHHHHMYQIQIRIWFNFISKNKHHMLGTMSDSYDFFLSMSEITFALDPKYEFDKDIGCVLSLIKNTKELRFRINQYINKYKNKSPSLNRLNTFINTLEENENFYLLPAIENVSQTQLIKLQTSLSLVHLDELGKDAYIKSFNSNFSDFIDQYSMNGIDPKEVKGKKKIGEGFKANRVCRFCNNKNEKPTTFAKEAHAISESLGNKKIILNEECDLCNEYFDQNIERDIDTYLKLYSSFFRVKNKDNKVSKIKGKNFSFEYINTTIDGHDRHIDFVLAHTPTNSESCNSDSEPPKNVDLCFHQKIRKQNIYKSLVKFALSVIHDRKDLSEFNKAIEWIKSPTKFYEQLPKIAILKNYQFYCTEPALIVYISKNKKQGLPYAVGEFHYTFLTYIFIIPLFKSDEVEFSQQNNFDDFIKFFPQFKRMDEWSFEDFSDYEEKEFVLNMILSQRDEG” as the sequence, how does the “soluble on expression in E. coli” value read?
**A.** The value was “not soluble”.

**Q.** With “EKITILADAIPELHVEEANDKVMGSIDWEAALKQSAGKEDLAQEMLQMLVDFIPEVNEWIDKALESDISEEELCHYIHKLHGSSSYCGVPRLKQLCNLIETSLRQHQTISDIEPELFELQDEMEKVTKDANLLLSN” as the sequence, how does the “soluble on expression in E. coli” value read?
**A.** Its value is “not soluble”.

**Q.** For “MKFSSLLQDTAAIDVFIKILTSVSKLSKKRCCVKIEKNALNFICCSGLHDGGSWFSLSIPYSSQIFRKFDMVGMNPRNEEQNLIYFELEIDSLVRVLPGGHCYLKLKLSKSQKDEPMLSVEVRNPEADIVSHQIPITIILSKYWNSYSRPSIGHRKMSISMPPPKMMSRFLHVFKNMNTRVVKLTASTSGDLRISTKIETGEIDVSFSDLQTNPSETDSQEDTAKVQLMIRNISPLFQSFANTRTRAKMNIISNRMAEFNFHNEDCVLSYIVGNVSD”, which “soluble on expression in E. coli” value is on record?
**A.** Its value is “not soluble”.

**Q.** Which “soluble on expression in E. coli” value does the source give for “EVVVIGYGSVKKDDLSGSVVAIKAEEMNKGAVTSPQELIMGKVPGLSVSQGDGAPGAGSTIRIRGGASLNASNDPLIVIDGIPVSNDAAPGTPNALATINPNDIETFTVLKDASATAIYGSRASNGVIII” here?
**A.** Its value is “not soluble”.

**Q.** With “MLHLIVLLVALSSAVTAGRPRRALDGLDGSGFGFDKRALNSLDGAGFGFEKRALNSLDGQGFGFEKRALDGLDGAGFGFDKRALNSLDGAGFGFEKRALDGLDGSGFGFDKRALNSLDGAGFGFEKRALNSLDGAGFGFEKRALDGLDGAGFGFDKRALNSLDGAGFGFEKRALDGLDGAGFGFDKRALNSLDGNGFGFDKRTFKHSSNKLRSVFRNLKGFKQH” as the sequence, how does the “soluble on expression in E. coli” value read?
**A.** The value was “not soluble”.

**Q.** With “MPINFHDANNKYTYAQRNAHISWGEMIKGITNIQNKQIIDIGCGGGIYTKELALMGAKSVVGLDFSKEILQAAKENCSGFSNISFIHGDAHSTPYPNDTFDIVISRAVIHHLQDIPTFLREASRILKKNGVLIVQDRTIEDCTIPGSPEHIRGYFFSIFPKLIEIESKRRPKTTTIQKELQKYFLHVFPTQTQWEVRKIHDSVEALLQDLSPRTGRSILYELTDYELSQLLQQVQTALQNVSPIIERDRWTIWSAMKL” as the sequence, how does the “soluble on expression in E. coli” value read?
**A.** The value was “not soluble”.

**Q.** Which “soluble on expression in E. coli” value does the source give for “MGSDKIHHHHHHEDEKSPVMELQKASAFEPFSQSDFTFNDENAAAEFPEIKWTAADYGVKAVVNYDVTLTNDANAKTVLLGETGTTSLKFTNGQMNTMMAKVGAYPGQTYNFTITLTSKAYDMTADPASNSITFKATLFDPNAVDWKFAYVAVGYPDWDYTNAYLLGDPDGDGVYQGYANFDADGVSYAIIDGSDLTKILAKDQTAAKKGFYGIKVDAEGKVEQTEPLVWGVVGDATSGGWDKDTQMDYDATTRLWTVTTSLLDKEFKFRSNNNWDSDNYGAVSGKESELEGELVAGPNNFKVLKASPYVITMNLTNAGKYSYSMVETTIELSSAEMALPGSYQGWDATKDDCYKVQSAARDFIYTGTFYFDADTKFKFWDAGVWIGMMGPISWDEAKNIGTFVLMPSDGDNIKIETAGYYRVGADMKKLTASLTKTGWEIIGDATPGGWDKGTVMNYDPATKLWSVDVTLVAGEMKFRWDGAWTVNLGGSLGALTQDGANMKVTAGAYTIVLNPDAKTATMTKK” here?
**A.** The value was “not soluble”.

**Q.** Which “soluble on expression in E. coli” value does the source give for “MQEKDCIFCKIVRGEVPAKKVYEDDKVLAFHDINPVAPVHILIIPKKHIMGIQTLEPEDECLVGHMFYVARKIAEDLGIAPDENLNKGYRLVFNVGKDAGQSVFHLHLHLIGGREMSWPPG” here?
**A.** The value was “soluble”.

**Q.** With “MGSDKIHHHHHHMWRNAQVNWDDYRCFLTLAKTGSFSRAARLLHVDHTTVGRRVAALEVDLGIKLVERLAREVRLTAEGHDLATLGLPVEEAMASVERAAAGGGAALAGPVHISAPPGLASLLLAPKLVSLHRQYPEIKITMSSDKDFANLNRREADIALRLSRPLSNGLVARKLRDIPFFFFASHTYDIAEDDWEFITYLQADDILPQQSWLMQHIGSRTIALRCSDAASQVQAAASGLGVALLPDYLGYNDTRLRKCPSRLTPPRRELWMVVHDDIRHAPRVRVVLDFLIGILTATQDLELPHASEA” as the sequence, how does the “soluble on expression in E. coli” value read?
**A.** The value was “not soluble”.

**Q.** For “LAEGEEQIVARDGNSWLVDGVTPITDVMRSFAIEEFPQQQNYETIAGFMMYMLRKIPRRTDSVVYAGYKFEVVDIDNYKVDQLLVSRVE”, which “soluble on expression in E. coli” value is on record?
**A.** Its value is “not soluble”.
